B1: INTS4 (parent)
chain: TIIEPAGESDNPLRFTSGLVVALD

Variants of: B1
Assay: protein stability index of a GFP-peptide fusion (GPS, HEK-293T) (PSI 1-6); higher = more stable
Conditions: c terminus: a fixed tail appended
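Also: lentivirally expressed fusions sorted by FACS into six bins by GFP to DsRed ratio, PSI derived from sequencing read proportions per bin multiplied by bin number.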

Protein stability index of substitutions, site by site:
L13: S 3.86, W 3.14, F 2.33, E 4.12, K 3.64, M 3.35, R 3.65, N 3.06, C 2.94, G 3.14, D 4.41, H 3.38, T 4.03, P 3.6, Q 3.5, V 3.01, A 3.81, I 2.87, Y 3.17
G18: K 2.77, D 3.67, L 1.55, R 2.24, P 2.59, Q 2.7, N 2.99, C 1.66, A 2.42, S 2.83, E 3.15, M 1.67, I 2.4, F 1.41, H 2.21
S17: P 2.99, K 2.65, E 3.73, C 1.52, G 2.9, V 1.73, M 1.67, W 2.14, F 2.08, Y 2.15, H 2.5, I 2.27, Q 3.06, R 2.05, N 2.53, L 3.12, T 2.92, D 3.92, A 2.51
F15: T 4.3, S 4.21, K 3.54, N 4.36, Y 2.87, D 5.04, Q 3.99, H 4.37, R 3.92, G 4.03, E 4.63, C 3.87, L 3.21, A 4.29, W 2.2, I 3.72, P 3.9, V 3.97, M 3.44
D10: T 2.63, Q 2.49, M 2.15, G 2.56, I 2.08, H 2.75, K 2.32, F 2.65, R 2.23, C 2.08, N 3.61, V 2, L 1.85, P 2.83, A 2.96, Y 1.89, S 2.72, W 2.85, E 2.62
T16: C 1.91, P 3, Y 1.74, A 2.74, W 1.76, R 3.35, N 3.39, F 2.35, E 3.44, K 3.02, M 2, Q 3.35, V 2.01, G 3.15, L 1.99, I 2.21, S 2.88, D 3.92, H 2.23
P12: E 3.13, T 2.93, C 2.52, D 3.4, A 2.76, I 2.27, R 2.65, V 2.53, K 2.61, H 2.61, N 2.88, F 2.41, Y 1.96, G 2.68, W 2.14, L 2.1, S 3.13, Q 3.73, M 2.33
N11: A 3.13, Y 2.25, D 3.33, S 2.6, W 1.63, I 2.42, L 2.42, Q 3, P 2.27, V 2.33, T 2.64, K 2.86, C 2.9, E 3.33, H 2.47, M 2.21, G 2.38, R 3.19, F 1.66
R14: Q 3.26, E 4.21, F 2.04, N 3.95, T 2.96, S 3.63, Y 2.21, I 2.46, L 2.96, G 3.25, A 3.63, H 3.91, M 2.27, K 2.77, V 2.86, D 3.93, W 2.03, P 3.4, C 2.62
